In patent publication US20060286117A1, “Neuronally expressed stem cell factor modulates angiogenesis and neural stem cell migration to areas of brain injury” (priority 2003, published 2006):
“Also recorded” adds a separate entry of the source.

Tests used:
HBMEC = test: Matrigel tube formation (EC differentiation) assay, HBMEC; assay type: cell-based, human
Experimental: (§1) After the Matrigel (BD Biosciences) formed a solid gel in 24-well plates, serum-starved BMVEC-b cells were seeded on the gel surface at 10^5 cells per well and cultured in treatment medium in the presence or absence of SCF (20 ng/ml). Primary HBMEC were placed on the gel directly at 24×10^3 per well. Tubular formation was observed using an inverted phase contrast microscope, and images were captured at 4 and 18 hr after cell seeding. Each experiment was repeated two or three times.

SCID mice [1] = test: In vivo angiogenesis assay, matrigel plug with rmSCF (Example 3); set-up: species or system mouse; details: rmSCF 50 ng/ml, subcutaneous, 7 days, vs PBS control
Experimental: Recombinant mouse SCF (rmSCF) was used at 50 ng/ml in an in vivo angiogenesis assay. The matrigel plug containing SCF or PBS control was placed subcutaneously in SCID mice for 7 days, and the blood vessel formation within the gel was examined by H&E staining. […] In the higher magnification figure on the right side, the red blood cells inside of the newly formed vessel are indicated by an arrow.

[2] = test system: c-Kit, MAPK and PI3K/Akt pathways in HBMEC; test: Immunoblot of SCF/c-Kit signal transduction, HBMEC; assay type: cell-based, human; details: SCF 50 ng/ml
Experimental: (§2) Confluent-grown ECs were treated with 50 ng/ml of SCF for 5, 10, 15, and 30 min after 24 hr of serum starvation. The ECs were collected with RIPA lysis buffer (Upstate, Charlottesville, Va.) containing 50 mM NaF, 1 mM Na3VO4, […], and Protease Inhibitor Cocktail (Roche). The antibodies were purchased from Cell Signaling Technology, Inc. (Beverly, Mass.) or as mentioned otherwise. All the primary antibodies were used in a 1:1000 dilution except for the anti-SCF antibody, which was used in a 1:2000 dilution. The primary antibodies were anti-phospho-c-Kit, anti-phospho-MEK1/2 and anti-MEK1/2, anti-phospho-p44/42 MAPK and anti-p44/42 MAPK, anti-phospho-SAPK/JNK and anti-SAPK/JNK, anti-phospho-p38 MAPK and anti-p38 MAPK, anti-phospho-Akt and anti-Akt, anti-phospho-mTOR and anti-mTOR, anti-phospho-4E-BP1 and anti-4E-BP1, anti-SCF and anti-VEGF (Chemicon, Temecula, Calif.), and anti-β-tubulin (Sigma). Re-blotting was done after membranes were stripped by re-blot kit (Chemicon). Tie2 detection in Matrigel plugs from the in vivo Matrigel assay was carried out by immunoprecipitation and immunoblotting. The gel plugs were carefully separated from muscle and skin and homogenized with RIPA lysis buffer. The resulting total tissue lysates ([…]) were immunoprecipitated with Tie2 antibody (Santa Cruz Biotechnology, Inc., Santa Cruz, Calif.) and then analyzed by immunoblot with Tie2 antibody (Zadeh et al. 2004 Am J Pathol 162:467-476).

SCID mice [3] = test: In vivo angiogenesis assay, subcutaneous Matrigel plugs with SCF or β-FGF; set-up: species or system mouse; details: subcutaneous Matrigel in adult SCID mice, fourteen days after injection
Experimental: as §2
All adult mice (6-8 weeks of age) were from NCI-Fredrick, and the animal experiments were conducted on an animal experimentation protocol approved by the NCI's animal protection committee (the “ACUC”). […]

BMVEC-b = test: Matrigel tube formation (EC differentiation) assay, BMVEC-b; assay type: cell-based, bovine; details: SCF 20 ng/ml
Experimental: as §1

B1: SCF: Stem cell factor protein (R&D Systems), ligand of the c-Kit receptor (protein)
chain: KEICGNPVTDNVKDITKLVANLPNDYMITLNYVAGMDVLPSHCWLRDMVIQLSLSLTTLLDKFSNISEGLSNYSIIDKLGKIVDDLVLCMEENAPKNIKESPKRPETRSFTPEEFFSIFNRSIDAFKDFMVASDTSDCVLSSTLGPEKDSRVSVTKPFMLPPVA
- time to mature appearing capillary-like structures (HBMEC): ≤ 18 h
- time to migration in Matrigel (HBMEC): ≤ 4 h
- blood vessel formation within the matrigel plug (H&E) (SCID mice [1]): stimulates angiogenesis
- phosphorylation of Akt [2]: induced immediate phosphorylation
- phosphorylation of SAPK/JNK [2]: could not induce phosphorylation
- phosphorylation of c-Kit [2]: induced immediate phosphorylation
- phosphorylation of p38 MAPK [2]: could not induce phosphorylation
- phosphorylation of p44/42 MAPK [2]: induced immediate phosphorylation
- Tie2 protein in Matrigel plug (SCID mice [3]): high Tie2 expression
- angiogenesis in Matrigel plug (H&E, vWF-positive vessels) (SCID mice [3]): high density of blood vessels; also recorded: induced substantial angiogenesis
- time to mature appearing capillary-like structures (BMVEC-b): ≤ 18 h
- time to migration in Matrigel (BMVEC-b): ≤ 4 h
